Results from the domain aggregation screens of Martell et al. (2025).

Assay: soluble fraction after stress (log2 fold change); higher = more stays soluble; pooled small domains, quantitative proteomics
Conditions: stress: 75 degC
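Further: 20 min heating vs room temperature control held 20 min.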

Sequence	soluble fraction (log2)
HMEPDEQAVKALIAEIDKLSKEKLTLKHEKKLKELREIYDDFTEEEKKLVTNYDILVKMEKRMEVLKKQEG	0.127
HMEPDEYTVRQAFMKFDVGGEGRVPRDKLKALLETLGLELSAQQVRESEEQLDPEGTGFTSYGDFLMWWN	-0.793
HMEPEVSNTYEKVLGMHHFSSTRSHQLHDLVRQANALELSLGEIESIAQSAKDGAQVISDIKHWMEPNRQ	0.381
HMEPEWVINTDGSNLNEILAIDEVDSRKTFSNDLQEVYRTFGIEAARQILVQEIDAVIESSGA	0.082
HMEPFEQLLDRITSQTGKEPEEVVARMNELITERFDGNIRPEAALVIVAKRDNIQFMDLLDQLKQALL	-0.427
HMEPIAFDNMHNRGIKGTNDWTQYEITLPFSAEAKKIFVAGLLVGKGKAWFDKFEVFLDGKNITDVAQI	0.0509
HMEPPPSYSALLKQISSGKVKELQLVPARREVIVTYPDGRSATVAILANDQQILRTAEAAGTPLLVK	0.189
HMEPQLVKSFDVQTELTYDQFLSKYPESHTLGRLLVQPEPIPFEPYKNIPGITPEKLLALHAKHLEAR	0.107
HMEPQSRTAYRLIEAMIVTHELPPGSRISEASLSAKLGIGRTPIREALQRLSFEGTVKIVPRSGAFVSEI	-2.78
HMEPREALDGLISERGETYASISRLLGRNSAYIQQFIKRGSPARLDQSDIALLALHFDVPVEMLGGKE	-0.588
HMEPTIGTATVTSGSRLNMRSAKSTSASVVTRIPSGATVGVISYASDWSKVTYNGYTGYVSSPYISMNG	-1.19
HMEPVIELGDRTLPIEITRHRRARRLTLRLAADGSAVRITLPHWARSAEATAFAHARRDWLAAQLAK	0.181
HMEPVTETVYAMDTVNIRAAADQTSEKIGSVTVGTALTRTGTDGDWSIIDYNGTTGYVKSEFLSNTAPEV	0.253
HMEQLIIQEELSGKRLDQLVSLLFPSLTRAHAQKLIKEGAVLVNEKPRKPAYAVMTGELLTVELPEPE	-0.167
HMEQNHYEVLGVSRDAIPEEIRKAYFEYARKLHPDANPDPGAAEQFMRIQTAYDVLSNPDRRHEYDGLLPP	0.00418
HMEQRREEFILLAKELLEKELRKQNLEVHENLKPDVLNDVAKRLGMVSMDDLLAAVGDGKITPGTVVSKIV	-0.0625
HMEQVLNVAVRRGELIMSSAAEQTVRIYSSAGSMVWQGKVSASDVTVELPSGVYVVNGKKVV	-1.25
HMEQYFEDEELNDKFLEFLAMRKRVRKPVQTDRGMKMLLTSLHKLSGGDVGLMKQIIDQSLDNEWKKFVA	-1.14
HMERDIATKHEVNRTVEAYSDIVKTLNLPSHKINLVEISFFNILKRSKPSPRENSILLGLAQKIKLHLEKK	-0.737

Sequence	soluble fraction (log2)
HMERLKYSQVVDLFKGEQVKSFVLDESNQLKMELQDGSTVSYKLRSFEQFYLDLSDTVKEQKESGIITDYD	-0.685
HMERPPHELLSDREYQTMVMIASGRTLTQIAEEMSLSPKTVSVYRARLLEKMKLKNNAELTHYALKHKLV	-1.89
HMERPSLDQVLAHAKALGIAPARFVAYADGRWGTGWRLSPHGRARAWEELDRHRNDPLGYRDKLDVALQSG	-0.179
HMESAQLIINVAGKVSNPGVYQLPQGSRVVDAIEAAGKQLKGVDISDINLARVLVDGEQILVGGV	0.363
HMESAVDVFRSILKEKGVTEEEVRQVVAARGKYTLETPIDDYPNEFLYGYVIRYWDQIFDIIQQSREAK	-1.06
HMESEAKLGVAFNGKTRFDMTFPADADNKTIEEAVLADERAQKYLEGFQVAKVIIVPKRMVNIVLK	-0.189
HMESEIYKKIEKSRLLELAFTKSQKGDLTGAYDLYYQAFTKYDVIADNQNRYFEDFISLIRRKQQQD	-2.54
HMESGLPLPRFVSLGADEVNLRTGPGLRYPVAWVFVRKALPVEIVAEFEQWRRVRDFEGAEGWVHKAML	-0.163
HMESGSSKINQDILETFTRGKKSLSISDISRLSGHHRHTVARYLDNLVSSGKLEMRQHGQKKKYYLSDIQP	-0.314
HMESILDDFPGLGAVRRAALLEHFGDIDRLRAASAVEITEVDGFGDVLARELHDFLHRPKPDA	-0.515
HMESKKKTYTVKSGDTLVSILKREGVPQELIFKDYLGLFLELNPQISDINKLRVGQEIVLPVPG	0.05
HMESLGEKIKNIRISNNLKQSELADILHISEKTISSWENNRTTPDLNMIYKISNYFKKSFYYLISDDYI	-0.908
HMESMIGSLRGRLLELFGDGEVLIEVGGVGYRVIVTPTTTVRLGDVGGDVFVHVHHHIREADQTLYGF	-0.48
HMESPSGGHRIALAFDQGTARAVDATYARLTGAGYEGRTKPWDAPWGQRYATVFDPDGNSVDLFAALE	-0.445
HMESRDRVRQASAAGYRFMSTMAGHEPGFEEASRALFAGDQTAFEARITAWPVDVQTHLKKILAEAFTT	-1.17
HMESRLQAAIALRKAGEHEQSREALKILADEPALRAQALLNIAWSFDNQGHERDAEGYYLAAIE	-0.381
HMESSKLQASIINYLERRPTQKFTAEELFKGLSLEKASVFNELVKELTSLERSHKVEITADDKFKIARPQ	-0.331
HMESSSQLGFELARLVESGNDEEARALVQAKELSEADERKWLYHLGNLLHAAGRPLQASAIWREVGT	0.0141
HMESVQWSVFPSAKYVTIISFDPTTSGGSATAKFKVSDEARSKGFRFRIEAAIGEGIMRSEMYVIEE	0.215
